Data on three molecules can be found in patent US5362864, “Trans-activating factor-1” (The Trustees of the Rockefeller University).

The target of data set [1] is T1, truncated TAF-1 (p5a product from Met-22) (Nicotiana tabacum, UniProt Q99142 SEQ:1-244).
T1 sequence: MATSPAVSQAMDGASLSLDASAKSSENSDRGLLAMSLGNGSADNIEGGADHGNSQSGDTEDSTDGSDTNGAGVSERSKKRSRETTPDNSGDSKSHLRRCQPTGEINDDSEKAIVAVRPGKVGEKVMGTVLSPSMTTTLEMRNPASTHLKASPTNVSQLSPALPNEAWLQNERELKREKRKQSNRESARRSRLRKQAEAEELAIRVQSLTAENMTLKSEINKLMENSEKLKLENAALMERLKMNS
Kind of data set: competition; 60 ng gave about 50% competition; increased affinity also in direct EMSA. To be noted: tags: expressed from pSK(-) lacZ promoter in E. coli, ammonium sulfate fraction; chain copies: 2 (inferred). An excerpt:
(§1) FIG. 4A. TAF-1 preferentially binds to a perfect palindromic sequence. Tetramers of WT motif I, the mutant M1, and the perfect palindrome (PA), […], (SEQ. ID NO: 9) were used as probes in gel mobility shift-assays with E. coli extracts containing the truncated TAF-1. F, free probe; NC, non-specific complex. The specific complexes, indicated with arrowheads, have a slower mobility as compared to the non-specific complex. FIG. 4B. Relative binding affinities of TAF-1 to motif I (WT) and related sequences. WT motif I tetramer was used as a probe in gel mobility shift assays with E. coli extracts containing the truncated TAF-1. Different concentrations of tetramers of mutants M1 to M5, as well as the tetramer of the perfect palindromic sequence (PA) were tested for their ability to compete with the WT sequence for TAF-1. For WT, PA, M1 and M5, the concentrations that gave approximately 50% competition were used in the experiments shown here. Higher concentrations were used for mutants M2, M3 and M4. Comp., Competitor. FIG. 4C. Nucleotide sequences of WT (SEQ. ID NO: 11), mutants M1 to M5 (SEQ. ID NOS: 10, 13, 14, 15 and 12), and the perfect palindrome, PA (SEQ. ID NO: 9). In this figure, the WT motif I of the tetramer is shown with the TACGTG hexanucleotide as the core sequence. The 5' nucleotide G of the motif is derived from the 3' nucleotide of the preceding motif in the tetramer. […]
A general note: Mobility shift assays separate free from complexed probe on a gel.

Data set [2] deals with T1, truncated TAF-1 (p5a product from …). Kind of data set: competition; self competition; direct EMSA complexes in FIG. 2D; poly(dI-dC). To be noted: tags: expressed from pSK(-) lacZ promoter in E. coli, ammonium sulfate fraction; chain copies: 2 (inferred); label: fill-in labelled.
Source text: as §1

Data set [3] shares this target. Kind of data set: competition; 3 ng gave about 50% competition against WT probe; 200 ng needed for WT; direct EMSA also stronger than WT (FIG. 4A). To be noted: tags: expressed from pSK(-) lacZ promoter in E. coli, ammonium sulfate fraction; chain copies: 2 (inferred).
Source text: as §1

B1: M1 tetramer (dsDNA)
DNA 1: CAACGTGGCGCAACGTGGCGCAACGTGGCGCAACGTGGCG
DNA 2: CGCCACGTTGCGCCACGTTGCGCCACGTTGCGCCACGTTG
As for B1, in data set [1], the binding signal turned out to be 3.3 fold vs WT.

B2: motif I WT tetramer (dsDNA)
DNA 1: GTACGTGGCGGTACGTGGCGGTACGTGGCGGTACGTGGCG
DNA 2: CGCCACGTACCGCCACGTACCGCCACGTACCGCCACGTAC
B2 showed an IC50 in data set [2] of approximately 200 ng.

B3: PA perfect palindrome (G-box) tetramer (dsDNA)
DNA 1: GCCACGTGGCGCCACGTGGCGCCACGTGGCGCCACGTGGC
DNA 2: B3 DNA 1
Molecule B3 came in with a binding signal in data set [3] of approximately 66 fold vs WT.
